Patent US20210102195A1

What was measured:
[1] = target: human CD3 epsilon (human) (UniProt P07766); assay: biosensor sensorgrams with fits, instrument not named in Example 14; antigen not printed on the panel: taken as human CD3 epsilon because 28G-28I and 28J-28L repeat the same three spots (57, 169, 205) and the text gives 67 nM (28G) for human and 107 nM (28J) for cyno
[2] = target: cyno CD3 epsilon (cyno) (UniProt Q95LI5); assay: biosensor sensorgrams with fits, instrument not named in Example 14; antigen not printed on the panel: taken as cyno CD3 epsilon because 28G-28I and 28J-28L repeat the same three spots (57, 169, 205) and the text gives 67 nM (28G) for human and 107 nM (28J) for cyno
[3] = target: human CD3 epsilon (human) (UniProt P07766); assay: flow cytometry (MFI), titration 0.05-100 nM on Jurkat cells (2901)
[4] = target: human CD3 epsilon (human) (UniProt P07766); assay: flow cytometry (MFI), titration 0.05-100 nM on CD8+ T cells (2903)
[5] = target: human CD3 epsilon (human) (UniProt P07766); assay: flow cytometry (MFI), titration 0.05-100 nM; cells not named on the panel, the same value stands for CD8+ T-Cell in FIG. 29F

human CD3 epsilon (human), sequence (P07766 23-126 limits assumed): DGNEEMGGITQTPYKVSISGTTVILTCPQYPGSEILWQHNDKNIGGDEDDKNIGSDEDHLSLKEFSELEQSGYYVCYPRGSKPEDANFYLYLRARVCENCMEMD
cyno CD3 epsilon (cyno), sequence (Q95LI5 22-117 limits assumed): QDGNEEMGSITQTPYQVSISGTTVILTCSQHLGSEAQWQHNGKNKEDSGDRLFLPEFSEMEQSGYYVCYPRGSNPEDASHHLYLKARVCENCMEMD

Row | Substance | Kd [1] [pM] | Kd [2] [nM] | EC50 [3] [nM] | EC50 [4] [nM] | EC50 [5] [nM]
1 | muSP34 (antibody) | < 1.9 | 38 |  |  | 
2 | R&D MAB100 (antibody) |  |  | 0.537 | 3.05 | 3.05
